± gives the standard error. Fewer inactive variants are shown than the library holds.
B1: glmS ribozyme (parent)
chain: AUAAAAGCGCCAGAACUACAGAAAUGUAGUUGACGAGGAGGAGGUUUAUCGAAUUUUCGGCGGAUGCCUCCAAA

Columns and labels:
Details in all cases: with glucosamine-6-phosphate
glucosamine-6-phosphate [1] = variants of: B1; test: self-cleavage kobs at 40 uM GlcN6P; higher = faster cleavage; RNA array
Outline: (§1)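 In situ transcription by E. coli RNA polymerase produced barcoded ribozyme variants on sequenced MiSeq chips, and a hybridised Cy3 probe tracked them at 37 °C. Glucosamine-6-phosphate was flowed in at 40 μM to 10 mM in HEPES/KCl/Mg(OAc)2 buffer. kcat and KM were taken from weighted Michaelis–Menten fits of kobs values from exponential decay fits.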

glucosamine-6-phosphate [2] = variants of: B1; test: self-cleavage kobs at 160 uM GlcN6P; higher = faster cleavage; RNA array
Outline: as §1

glucosamine-6-phosphate [3] = variants of: B1; test: self-cleavage kobs at 640 uM GlcN6P; higher = faster cleavage; RNA array
Outline: as §1

glucosamine-6-phosphate [4] = variants of: B1; test: self-cleavage kobs at 10000 uM GlcN6P; higher = faster cleavage; RNA array
Outline: as §1

glucosamine-6-phosphate [5] = variants of: B1; test: self-cleavage kobs at 2500 uM GlcN6P; higher = faster cleavage; RNA array
Outline: as §1

Variant	self-cleavage kobs at 40 uM GlcN6P (glucosamine-6-phosphate [1]) [s⁻¹]	self-cleavage kobs at 160 uM GlcN6P (glucosamine-6-phosphate [2]) [s⁻¹]	self-cleavage kobs at 640 uM GlcN6P (glucosamine-6-phosphate [3]) [s⁻¹]	self-cleavage kobs at 10000 uM GlcN6P (glucosamine-6-phosphate [4]) [s⁻¹]	self-cleavage kobs at 2500 uM GlcN6P (glucosamine-6-phosphate [5]) [s⁻¹]
AUAAAAGCGCCAGAACUACAGAAAUGUAGUUGAGGAGGAGGAGGUUUAUCGAAUUUGCGGCGGAUGCCUCCAAA	< 1e-05	< 1e-05	< 1e-05	< 1e-05	
AUAAAAGCGCCAGAACUACAGAAAUGUAGUUGAGGAGGAGGAGGUUUAUCGAAUUUUCAUCGGAUGCCUCCAAA	< 1e-05	< 1e-05	< 1e-05	< 1e-05	
AUAAAAGCGCCAGAACUACAGAAAUGUAGUUGAGGAGGAGGAGCUUUAUCGAAUUUUCGGCGGAUGCCUCCAAA	< 1e-05		< 1e-05	< 1e-05	< 1e-05
AUAAAAGCGCCAGAACUACAGAAAUGUAGUUGAUGAGGAGGAGGUUUAUCGCAUUUUCGGCGGAUGCCUCCAAA	< 1e-05	< 1e-05	< 1e-05	< 1e-05	< 1e-05
AUAAAAGCGCCAGAACUACAGAAAUGUAGUUGAGGAGGAGGAGGUUUAUCGAAUCUUCGGCGGAUGCCUCCAAA	< 1e-05	< 1e-05	< 1e-05	< 1e-05	< 1e-05
AUAAAAGCGCCAGAACUACAGAAAUGUAGUUGAGGAGGAGGAGAUUUAUCGAAUUUUCGCCGGAUGCCUCCAAA	< 1e-05			< 1e-05	< 1e-05
AUAAAAGCGCCAGAACUACAGAAAUGUAGUUGAGGAGGAGUAGGUUUAUCGAAUUUUUGGCGGAUGCCUCCAAA	< 1e-05			< 1e-05	
AUAAAAGCGCCAGAACUACAGAAAUGUAGUUGAUGAGGAGGAGGUUUAUCGAGUUUUCGGCGGAUGCGUCCAAA	7.28e-05 ± 3.2e-05			0.000655 ± 0.00017	
AUAAAAGCGCCAGAACUACAGAAAUGUAGUUGAUGUGGAGGAGGUUUAUCGAAUUUUCGGCGGAUACCUCCAAA	< 1e-05			< 1e-05	
AUAAAAGCGCCAGAACUACAGAAAUGUAGUUGAUGAGGAGGGGGUUUAUCGAAUUUUCGGCGGAUGCCUCCAAA	< 1e-05	< 1e-05		< 1e-05	
AUAAAAGCGCCAGAACUACAGAAAUGUAGUUGAUGCGGAGGAGGUUUAUCGAAUUUUAGGCGGAUGCCUCCAAA	< 1e-05				
AUAAAAGCGCCAGAACUACAGAAAUGUAGUUGAUGAGGAGGAGGUUUAUCGGAUUUUCGGCGGAUGCGUCCAAA	0.000541 ± 0.00018			0.000197 ± 6e-05	
AUAAAAGCGCCAGAACUACAGAAAUGUAGUUGAGGAGGAGUAGGUUUAGCGCAUUUUCGGCGGCUGCCUCCAAA	< 1e-05				

Source: the supplement of paper PMC7125110
